Laboratory results from article PMC10027511, “Disordered proteins mitigate the temperature dependence of site-specific binding free energies” (The Journal of Biological Chemistry, 2023).
Like-named read-outs stand apart in the source and are kept apart here.

Tests used:
[1] = target: N-terminal SH3 domain of Drk (T22G); assay: 1H-13C HMQC titration of SH3 into 13C-Ile Sos site 4 (NMR TITAN); type: binding, Drosophila melanogaster; conditions: for Kd: 51.5 μM Sos site 4, 20 mM sodium phosphate pH 7.5, 5% D2O; for Kd / koff / kon / ΔGA°′‡ (activation free energy of association) / ΔGD°′ (dissociation free energy) / ΔGD°′‡ (activation free energy of dissociation): single measurement, bootstrap; for koff / kon / ΔGA°′‡ (activation free energy of association) / ΔGD°′ (dissociation free energy) / ΔGD°′‡ (activation free energy of dissociation): pH 7.5
From the text: As an alternative, we measured binding of Sos and SH3 from the opposite perspective, that is, by monitoring the interaction via Sos by moving the NMR-active nuclei from SH3 to Sos. Specifically, we isotopically enriched (^13C-δ1 methyl) isoleucines in the site 4 protein construct. This construct has three isoleucines: I1384 is in site 4; I1394 is adjacent to site 4; and I1325 is likely distant from site 4. Assignments were made via mutagenesis (Supplemental Material, Fig. S5). […] High-quality fits were obtained using two-dimensional lineshape analysis (Figs. S6–S10), yielding affinities (Table 1) similar to those from ITC (Table 2), and site 4 peptide, but only at low temperatures (Table 1) ([34]).
Figure 3 ^1H–^13C HMQC titration of Sos site 4 at 35 °C.A, spectra. B, simulated spectra from TITAN fits. C, van’t Hoff and Eyring analyses of ^1H–^13C HMQC titrations. Measurements were made with a constant concentration of 51.5 μM Sos site 4, with titration points signified by crosspeaks of different colors. SH3 concentrations are 270, 122, 100, 75.0, 50.0, 37.5, 25.0, 12.5, 6.25, 3.13, […], 0.781, 0.391, and 0 μM. HMQC, heteronuclear multiple quantum correlation; Sos, Son of sevenless.
NMR data were acquired using Bruker Avance III HD spectrometers equipped with QCI cryoprobes (^1H Larmor frequencies of 500, 470 MHz for ^19F), or TCI cryoprobes (^1H Larmor frequencies of 850 MHz, 213 MHz for ^13C). Data were processed using NMRpipe (2020.171.18.39). Spectra across different temperatures are referenced to trimethylsilylpropanesulfonate.
^1H–^13C correlation spectra were acquired using a heteronuclear multiple quantum correlation experiment (optimized for the methyl transverse relaxation optimized spectroscopy effect) ([66]) with between 8 and 40 scans, depending on the signal/noise of the Ile1384 peak. The ^1H sweep width was 15 PPM using 5120 complex points and a center frequency at 4.7 PPM. Forty-eight complex points were collected in the indirect dimension, with a sweep width of 5 PPM, and a center frequency of 12.5 PPM. The water signal was suppressed and dephased using a combination of presaturation and selective shaped pulses. Sos site 4 protein was exchanged into 20 mM sodium phosphate, pH 7.5 plus 5% (v/v) D2O using a PD-10 midi desalting column (Cytiva); its concentration was then adjusted to 51.5 μM. Four hundred microliters of Sos site 4 solution were used to dissolve lyophilized SH3 for the initial titration point, and then spectra were acquired at 4.2, 15, 25, 35, and 45 °C. The solution containing only Sos site 4 was used for a series of dilutions to obtain SH3 titration points of 270, 122, 100, 75.0, 50.0, 37.5, 25.0, 12.5, 6.25, 3.13, 1.56, 0.781, 0.391, and 0 μM.
^1H–^13C heteronuclear multiple quantum correlation titration measurements of SH3 into [^13CH3-Ile]-labeled Sos were analyzed using NMR TITAN, version 1.6 ([34]). Measurements for each temperature were fit to a two-state interaction model, and parameter uncertainties were estimated from 100 bootstrapped replicas ([34], [67]). Ile1384, Ile1394, Ile1325, and one pseudo peak were fit as a single spin group to account for overlapping resonances. Measurements across multiple temperatures were then fitted to the van’t Hoff and Eyring equations to determine Δ HD°′ , TΔ SD,298.15K°′ , Δ HA°′‡ , TΔ SA,298.15K°′‡ , Δ HD°′‡ , and TΔ SD,298.15K°′‡ . Errors generated from TITAN fits were used to perform weighted least squares regressions, and the reported uncertainties are the 95% confidence intervals of fits.

[2] = target: T1, N-terminal SH3 domain of Drk (T22G, 19F-W36) (Drosophila melanogaster, UniProt Q08012, T22G); assay: 19F NMR titration of SH3 with Sos site 4 (two-state and bidentate fits); type: binding
T1 construct: the N-terminal SH3 domain of Drk (UniProt ID: Q08012); 19F label: 5-fluorotryptophan at W36 (chemical label on the side chain); made in house
T1 sequence (Q08012 1-58 T22G): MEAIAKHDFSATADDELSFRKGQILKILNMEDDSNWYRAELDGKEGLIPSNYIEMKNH
Description: Data were acquired using Bruker Avance III HD spectrometers equipped with a QCI cryoprobe (1H Larmor frequencies of 500, and 470 MHz for 19F). Data was processed using NMRpipe (2020.171.18.39) and referenced to trimethylsilylpropanesulfonate to account the temperature dependence of chemical shift. […]
site 4 (non-MBD tagged construct) was exchanged into of 50 mM HEPES, 50 mM bis-tris propane, 50 mM sodium acetate pH 7.5 plus 5% (v/v) D2O using a PD-10 Midi column (Cytiva) selecting the fractions with the highest concentration for the titration. The Sos solution was used to dissolved one aliquot of SH3, and a second, larger […]
volume solution of SH3 was prepared in the same buffer, at an identical concentration of SH3. Measurements were made at 4.2, 15, 25, 35 and 45 °C. The sample was then removed, diluted using the larger SH3 solution and returned […]
(§1) µM, with SH3 at 270 µM (Figure S3, Table S2).

[3] = system: N-terminal SH3 domain of Drk (T22G); assay: ITC of Sos constructs (cell) with SH3 (syringe); type: binding, Drosophila melanogaster; conditions: for Kd: single-site model
Description: volume solution of SH3 was prepared in the same buffer, at an identical concentration of SH3. Measurements were
made at 4.2, 15, 25, 35 and 45 °C. The sample was then removed, diluted using the larger SH3 solution and returned
as §1

[4] = 298 K, linear Eyring fit, 95% confidence interval
[5] = linear Eyring fit, 95% confidence interval
[6] = 4.2 °C, bidentate fit, strong site
[7] = 4.2 °C, bidentate fit, weak/nonspecific site
[8] = 15 °C, bidentate fit, strong site
[9] = 15 °C, bidentate fit, weak/nonspecific site
[10] = 25 °C, bidentate fit, strong site
[11] = 25 °C, bidentate fit, weak/nonspecific site
[12] = 35 °C, bidentate fit, strong site
[13] = 35 °C, bidentate fit, weak/nonspecific site
[14] = 45 °C, bidentate fit, strong site
[15] = 45 °C, bidentate fit, weak/nonspecific site
[16] = 4.2 °C, SMG construct, 20 mM sodium phosphate pH 7.5, knockout subtracted, three fits

B1: Site 4: Sos residues 1177 to 1405, L1203A, L1372A, R1375A, C1306S, C1357S, L1346A, R1349A, R1350A (protein, UniProt P26675 1177-1405, looked up, variant L1203A L1372A R1375A C1306S C1357S L1346A R1349A R1350A)
chain: TSSWSGTPQHTRTDQNNGEVSVPAPHAPKKPGAHVWANNNSTLASASAMDVVFSPALPEHLPPQSLPDSNPFASDTEAPPSPLPKLVVSPRHETGNRSPFHGRMQNSPTHSTASTVTLTGMSTSGGEEFSAGGFYFNSAHQGQPGAVPISPHVNVPMATNMEYRAVPPPAPPAAKERTESSADMAQKRQAPDAPTAPPADGELSPPPIPPRLNHSTGISYLRQSHGKSK
Kd ([1]; 4.2 °C): 3 ± 0.2 µM
koff ([1]; 4.2 °C): 0.093 ± 0.002 10^3 s^−1
kon ([1]; 4.2 °C): 0.31 ± 0.02 10^8 M^−1 s^−1
ΔGA°′‡ (activation free energy of association) ([1]; 4.2 °C): 28 ± 0.29 kJ/mol
ΔGD°′ (dissociation free energy) ([1]; 4.2 °C): 29.3 ± 0.29 kJ/mol
ΔGD°′‡ (activation free energy of dissociation) ([1]; 4.2 °C): 57.32 ± 0.084 kJ/mol
temperature dependence of ΔGD°′‡ and ΔGA°′‡ ([1]; 4.2–45 °C): do not change with temperature
Kd ([1]; 15 °C): 4.5 ± 0.2 µM
koff ([1]; 15 °C): 0.25 ± 0.09 10^3 s^−1
kon ([1]; 15 °C): 0.56 ± 0.03 10^8 M^−1 s^−1
ΔGA°′‡ (activation free energy of association) ([1]; 15 °C): 27.8 ± 0.25 kJ/mol
ΔGD°′ (dissociation free energy) ([1]; 15 °C): 29.5 ± 0.17 kJ/mol
ΔGD°′‡ (activation free energy of dissociation) ([1]; 15 °C): 57.28 ± 0.17 kJ/mol
Kd ([1]; 25 °C): 6.4 ± 0.2 µM
koff ([1]; 25 °C): 0.62 ± 0.03 10^3 s^−1
kon ([1]; 25 °C): 0.97 ± 0.06 10^8 M^−1 s^−1
ΔGA°′‡ (activation free energy of association) ([1]; 25 °C): 27.4 ± 0.25 kJ/mol
ΔGD°′ (dissociation free energy) ([1]; 25 °C): 29.7 ± 0.13 kJ/mol
ΔGD°′‡ (activation free energy of dissociation) ([1]; 25 °C): 57.07 ± 0.21 kJ/mol
Kd ([1]; 35 °C): 9.7 ± 0.2 µM
koff ([1]; 35 °C): 1.25 ± 0.04 10^3 s^−1
kon ([1]; 35 °C): 1.29 ± 0.05 10^8 M^−1 s^−1
ΔGA°′‡ (activation free energy of association) ([1]; 35 °C): 27.7 ± 0.17 kJ/mol
ΔGD°′ (dissociation free energy) ([1]; 35 °C): 29.6 ± 0.084 kJ/mol
ΔGD°′‡ (activation free energy of dissociation) ([1]; 35 °C): 57.28 ± 0.13 kJ/mol
Kd ([1]; 45 °C): 17.8 ± 0.5 µM
koff ([1]; 45 °C): 4.4 ± 0.2 10^3 s^−1
kon ([1]; 45 °C): 2.5 ± 0.1 10^8 M^−1 s^−1
ΔGA°′‡ (activation free energy of association) ([1]; 45 °C): 27 ± 0.21 kJ/mol
ΔGD°′ (dissociation free energy) ([1]; 45 °C): 28.9 ± 0.13 kJ/mol
ΔGD°′‡ (activation free energy of dissociation) ([1]; 45 °C): 55.9 ± 0.21 kJ/mol
TΔSA°′‡ (activation entropy of association) [1, 4]: 1 ± 1
TΔSD°′‡ (activation entropy of dissociation) [1, 4]: 1 ± 2
TΔSD°′ (van't Hoff) ([1]; 298 K, linear van't Hoff fit, 95% confidence interval): 0 ± 8.4 kJ/mol
ΔHA°′‡ (activation enthalpy of association) [1, 5]: 29 ± 4.2 kJ/mol
ΔHD°′‡ (activation enthalpy of dissociation) [1, 5]: 58.6 ± 4.2 kJ/mol
ΔHD°′ (van't Hoff) ([1]; linear van't Hoff fit of 4.2-45 °C data, 95% confidence interval): 29 ± 8.4 kJ/mol
Site 1 koff [2, 6]: 0.080 103 s-1
Site 1 kon [2, 6]: 0.37 108 s-1 M-1
Kd ([2]; 4.2 °C, bidentate fit, strong site, 50 mM HEPES, 50 mM bis-tris propane, 50 mM sodium acetate pH 7.5, 5% D2O, MG construct, read-out: Site 1 KD): 2.15 µM
Site 2 koff [2, 7]: 11 ± 4 103 s-1
Site 2 kon [2, 7]: 0.15 108 s-1 M-1
Kd ([2]; 4.2 °C, bidentate fit, weak/nonspecific site, read-out: Site 2 KD): 800 µM
Kd ([2]; 4.2 °C, two-state model (poor fit), read-out: KD): 0.3 µM
Site 1 koff [2, 8]: 0.239 103 s-1
Site 1 kon [2, 8]: 0.49 108 s-1 M-1
Kd ([2]; 15 °C, bidentate fit, strong site, pH 7.5, read-out: Site 1 KD): 4.9 µM
Site 2 koff [2, 9]: 15 ± 4 103 s-1
Site 2 kon [2, 9]: 0.10 108 s-1 M-1
Kd ([2]; 15 °C, bidentate fit, weak/nonspecific site, read-out: Site 2 KD): 1500 µM
Site 1 koff [2, 10]: 0.667 103 s-1
Site 1 kon [2, 10]: 0.63 108 s-1 M-1
Kd ([2]; 25 °C, bidentate fit, strong site, pH 7.5, read-out: Site 1 KD): 10.6 µM
Site 2 koff [2, 11]: 19 ± 5 103 s-1
Site 2 kon [2, 11]: 0.06 108 s-1 M-1
Kd ([2]; 25 °C, bidentate fit, weak/nonspecific site, read-out: Site 2 KD): 3000 µM
Site 1 koff [2, 12]: 1.74 103 s-1
Site 1 kon [2, 12]: 0.80 108 s-1 M-1
Kd ([2]; 35 °C, bidentate fit, strong site, pH 7.5, read-out: Site 1 KD): 21.7 µM
Site 2 koff [2, 13]: 23 ± 7 103 s-1
Site 2 kon [2, 13]: 0.04 108 s-1 M-1
Kd ([2]; 35 °C, bidentate fit, weak/nonspecific site, read-out: Site 2 KD): 6000 µM
Site 1 koff [2, 14]: 4.29 103 s-1
Site 1 kon [2, 14]: 1.01 108 s-1 M-1
Kd ([2]; 45 °C, bidentate fit, strong site, pH 7.5, read-out: Site 1 KD): 42.6 µM
Site 2 koff [2, 15]: 30 ± 10 103 s-1
Site 2 kon [2, 15]: 0.03 108 s-1 M-1
Kd ([2]; 45 °C, bidentate fit, weak/nonspecific site, read-out: Site 2 KD): 10000 µM
Kd [3, 16]: 3 ± 1 µM
ΔHD°′ [3, 16]: 11.7 ± 0.42 kJ/mol
Kd ([3]; 35 °C (35.1 in Table S1), SMG construct, 20 mM sodium phosphate pH 7.5, knockout subtracted, three fits): 14 ± 3 µM
sign of ΔCP,D ([3]; from ΔHD°′ at 4.2 and 35 °C): positive
stoichiometry before knockout subtraction ([3]; unsaturated after >3 mole equivalents, specific plus nonspecific binding): > 1
